Experimental findings from article PMC7605111 are described below.

Experiment [1] deals with class II fructose-1,6-bisphosphatase from Francisella tularensis (Francisella tularensis). Nature of the experiment: SEC. Background: SEC sorts molecules by how far they enter the pores of the column.
For experiment [2] the target is unchanged. Description: crystal structure.

Where “and” joins values, the source holds several entries; their conditions need not be identical. Identical values can stand only once.

One may read the stoichiometry N as a count of units in the complex or per binding partner. Turning to “class II fructose-1,6-bisphosphatase from Francisella tularensis (enzyme)”, the stoichiometry N is 2 and 4 in experiment [1]; 4 in experiment [2].
